The record followed here is paper PMC9820535.

The data set concerns the target T1, rDmeR (Vibrio parahaemolyticus RIMD 2210633) (UniProt Q87GM9).
T1 sequence: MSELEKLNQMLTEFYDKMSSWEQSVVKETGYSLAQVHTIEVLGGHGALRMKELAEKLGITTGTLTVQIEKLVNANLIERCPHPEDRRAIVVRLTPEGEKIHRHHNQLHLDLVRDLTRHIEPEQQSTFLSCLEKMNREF
Kind of data set: EMSA. The note with it: 10 mM Tris pH 7.4, 150 mM NaCl, 0.1 mM DTT, 0.1 mM EDTA or 0.5 mM CoSO4, 200 ng poly(dI:dC), 20 ng DNA, 0-1.0 ug rDmeR in 20 uL, 25 C 30 min, 6% native PAGE. (In general: A gel shift assay detects complexes by their altered migration in electrophoresis.)

In the case of “CAAGGGCAACATCTTACAGCCATGACCGGTAAACAATGCATTTACCTAATTGACGACTTTGCGTCGGAATTAGATAGCCAACGTCGCAAGCGTCTTGCAGATTGCTTGAAAGAGACAGGCGCACAAGTATTTGTAAGCTCTATCACTGAAAACCAAATCGCCGACATGCTCGACGATAATGGCAAATTGTTTCATGTGGAACATGGCAGGATAGA (double strand) [PgyrB promoter probe]”, the binding result is recorded as “no binding”.

For “TAAGCGGCTGATTCCCAAACAAGGCCGCATATGTTCATGCGGGGAGGCATCAGATTGGCCAATCTTGAGTGCAGTGATGAACGCCTTTCTTAGTTTTCTATGTTGACTTTGTTTGATGGTCAAACTAAATTTAAATCAAATATTTTGATTATCAAACAAAATGAGCAATAACGATATGATTTATCTATGGCAATAGCACAACACACGC (double strand) [PdmeRF promoter probe (WT)]”, the binding result is recorded as “binds”.
